In article PMC8472802, “Agaricales Mushroom Lignin Peroxidase: From Structure–Function to Degradative Capabilities” (Antioxidants, 2021):
Positions count from the first letter of the chain named. Numbers in names are those of the source.

B1: ApeLiP (LiP of Agrocybe pediades) (Agrocybe pediades) (protein)
chain: AVTCPTGQTTANEACCVLFPVIDLLQEELFDGGECGEEAHAALRLAFHDAIGFSKNGGKGGGADGSILAFHQTETTYAANSGIEDIITAQLPIFQKTNLTAGDFVHLAAAIGTGNCPGSPQLAYSFGRPPPVAPAPDGTVPEPTDSVTDILARFSEAGFVTAEVIWLLASHSIAAASKIDTSAPRTPFDSTPALFDTQFYLETILNGTLLPGDGGAHTGEVLSPIAGEMRLQSDFAFAQDPRTACLWQEPINDQAFIQGKFFAAMKKLQVLGQTGLTDCSDVIPVPASLPGPITFPAGFSEADVISACTATPLPSLATIAGPKPTIPPVPL
B2: ApeLiP (LiP of Agrocybe pediades) (Agrocybe pediades; W166A) (protein)
chain: B1 chain with W166A

How the values were obtained:
Assay in all cases: purified protein
Format in all cases: biochemical, Agrocybe pediades
purified protein [1] = substrate: CCn1c(=NN=c2sc3cc(S(=O)(=O)O)ccc3n2CC)sc2cc(S(=O)(=O)O)ccc21
purified protein [2] = substrate: COc1ccc(CO)cc1OC; settings: pH 4.0, 25 °C, 0.4 mM H2O2, fit with substrate inhibition
purified protein [3] = substrate: COc1cccc(OC)c1O
purified protein [4] = substrate: Nc1c(N=Nc2ccc(S(=O)(=O)CCOS(=O)(=O)O)cc2)c(S(=O)(=O)O)cc2cc(S(=O)(=O)O)c(N=Nc3ccc(S(=O)(=O)CCOS(=O)(=O)O)cc3)c(O)c12; settings: Hill n = 2.11 ± 0.30, pH 3.0, 25 °C, 0.4 mM H2O2
[5] = high-efficiency site of biphasic kinetics, Hill n = 1.62 ± 0.12, 100 mM sodium tartrate pH 3.0, 25 °C, 0.4 mM H2O2
[6] = pH 3.0, 25 °C, 0.4 mM H2O2, fit with substrate inhibition
[7] = low-efficiency site (only site left), Hill n = 1.62 ± 0.28, strong substrate inhibition, pH 3.0, 25 °C, 1 mM H2O2
[8] = pH 8.0, 25 °C, 1 mM H2O2, Michaelis-Menten fit despite substrate/product inhibition, no activity at pH 3

Row | Protein | K0.5 (purified protein [1]; [5]) [µM] | kcat (purified protein [1]; [5]) [s⁻¹] | kcat/Km (purified protein [1]; [5]) [s⁻¹ mM⁻¹] | Km (purified protein [2]) | kcat (purified protein [2]) [s⁻¹] | kcat/Km (purified protein [2]) [M⁻¹ s⁻¹] | Km (purified protein [3]; [6]) [µM] | kcat (purified protein [3]; [6]) [s⁻¹] | kcat/Km (purified protein [3]; [6]) [M⁻¹ s⁻¹] | K0.5 (purified protein [4]) [µM] | kcat (purified protein [4]) [s⁻¹] | kcat/Km (purified protein [4]) [M⁻¹ s⁻¹] | K0.5 (purified protein [1]; [7]) [µM] | kcat (purified protein [1]; [7]) | kcat/Km (purified protein [1]; [7]) | Km (purified protein [3]; [8]) [µM] | kcat (purified protein [3]; [8]) [s⁻¹] | kcat/Km (purified protein [3]; [8]) [M⁻¹ s⁻¹]
1 | B1 | 8.1 ± 0.6 | 42 ± 1.8 | 5130 ± 460 | (29.6 ± 4.6) × 10^3 µM | 4.3 ± 0.3 | 150 ± 30 | 37 ± 5.6 | 68.6 ± 2.8 | 1.91e+06 ± 310000 | 14 ± 1.4 | 21 ± 1.5 | 1.54e+06 ± 115000 | – | – | – | – | – | –
2 | B2 | – | – | – | – | – | – | – | – | – | – | – | – | 1150 ± 190 | 117 ± 10 ^c s^-1 | 102 ± 19 ^c s^-1·mM^-1 | 49 ± 8.2 | 6.1 ± 0.27 | 125000 ± 22000
